Results taken from US20250206818A1 (AGENUS, published 2025).

T1: human LAG-3 expressed on cells (human, UniProt P18627 23-525)
T1 construct: whole, on cells; also called CD223
T1 sequence (looked up): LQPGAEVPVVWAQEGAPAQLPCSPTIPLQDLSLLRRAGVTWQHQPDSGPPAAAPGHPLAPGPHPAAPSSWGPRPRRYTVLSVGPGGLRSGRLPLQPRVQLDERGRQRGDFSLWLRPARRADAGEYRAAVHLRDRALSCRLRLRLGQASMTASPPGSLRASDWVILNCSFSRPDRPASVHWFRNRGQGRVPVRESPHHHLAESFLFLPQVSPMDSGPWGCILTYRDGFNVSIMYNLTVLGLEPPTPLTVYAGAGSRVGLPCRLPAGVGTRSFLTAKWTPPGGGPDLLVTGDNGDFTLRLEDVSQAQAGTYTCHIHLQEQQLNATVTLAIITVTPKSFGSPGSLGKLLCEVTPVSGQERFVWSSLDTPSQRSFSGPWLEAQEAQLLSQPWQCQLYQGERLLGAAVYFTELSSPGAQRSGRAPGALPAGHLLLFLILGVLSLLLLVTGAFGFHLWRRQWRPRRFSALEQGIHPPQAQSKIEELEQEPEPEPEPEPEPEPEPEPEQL

T2: recombinant human LAG-3 (human, UniProt P18627 23-450, limits assumed)
T2 sequence (looked up): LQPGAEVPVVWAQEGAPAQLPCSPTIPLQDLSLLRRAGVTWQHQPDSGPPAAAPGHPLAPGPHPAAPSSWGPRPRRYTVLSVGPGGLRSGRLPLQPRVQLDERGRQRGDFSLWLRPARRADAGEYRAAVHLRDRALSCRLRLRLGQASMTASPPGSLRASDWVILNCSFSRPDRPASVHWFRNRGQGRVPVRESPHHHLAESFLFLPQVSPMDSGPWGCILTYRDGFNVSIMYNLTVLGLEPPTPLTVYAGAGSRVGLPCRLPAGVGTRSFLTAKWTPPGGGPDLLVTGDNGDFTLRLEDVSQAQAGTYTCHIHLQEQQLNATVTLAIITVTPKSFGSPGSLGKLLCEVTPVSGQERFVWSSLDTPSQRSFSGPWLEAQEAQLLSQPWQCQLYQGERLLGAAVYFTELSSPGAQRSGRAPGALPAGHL

B1: P13B02-26 (antibody, IgG1, V domains shown)
VH: QVQMKQSGAEVVKPGASVKVSCTASGFNIKDTYIHWVRQAPGQGLEWIGEIDPANDNTKYDPKFQGRVTITADTSSNTVYLQLSSLRSEDTAVYYCATYYYKYDVGGFDYWGQGTLVTVSS
VL: EILLTQSPGTLSLSPGERATLTCSVSSSISSSNLHWFQQKPGQSPRLWIYGTSNLASGVPDRFSGSGSGTSYTLTISRLEPEDFAVYYCQQWSSYPFTFGQGTKVEIK
notes: Humanized; VH is H4_R98K; generated as full length IgG1; also called P13B02-26 (IgG1)
B2: P13B02-27 (antibody, IgG1, V domains shown)
VH: QVQMKQSGAEVVKPGASVKVSCTASGFNIKDTYIHWVRQAPGQGLEWIGEIDPANDNTKYDPKFQGRVTITADTSSNTVYLQLSSLRSEDTAVYYCATYYYRYEVGGFDYWGQGTLVTVSS
VL: EILLTQSPGTLSLSPGERATLTCSVSSSISSSNLHWFQQKPGQSPRLWIYGTSNLASGVPDRFSGSGSGTSYTLTISRLEPEDFAVYYCQQWSSYPFTFGQGTKVEIK
notes: Humanized; VH is H4_D100E; generated as full length IgG1; also called P13B02-27 (IgG1)

Assays:
[1] = biological target: T1, human LAG-3 expressed on cells; assay: flow cytometry, 10 ug/ml antibody on SEA-activated primary human CD4+ T cells (FIG. 6A)
recombinant human LAG-3 = biological target: T2, recombinant human LAG-3; assay: surface plasmon resonance (data not shown)

Binder	binding result [1]	binding result (recombinant human LAG-3)
B1	binds	binds
B2	binds	binds
